Reference: patent publication US20250277003A1

How the values were obtained:
[1] = molecular target: SARS-CoV-2 RBD glycan-masked mutant GM14 (SARS-CoV-2) (UniProt P0DTC2); assay: ELISA, AUC relative to RBD WT
[2] = molecular target: SARS-CoV-2 RBD glycan-masked mutant GM9 (SARS-CoV-2) (UniProt P0DTC2); assay: ELISA, AUC relative to RBD WT

Substance	%AUC [1] [%]	%AUC [2] [%]
mAb C002 (antibody)	10.2	51.3
mAb CB6 (antibody)	7.8	7.2
mAb CR3022 (antibody)	72.9	120
mAb EY6A (antibody)	94.5	115
mAb S309 (antibody)	83.4	114
